The values below are quoted from earlier work in PMC5152572.

Like-named read-outs stand apart in the source and are kept apart here.

Data set [1] addresses IL-1 receptor (Homo sapiens) (UniProt P14778).
The target is the same in data set [2]. The source holds these as a separate data set.

UniProt P14778, sequence (P14778 18-569): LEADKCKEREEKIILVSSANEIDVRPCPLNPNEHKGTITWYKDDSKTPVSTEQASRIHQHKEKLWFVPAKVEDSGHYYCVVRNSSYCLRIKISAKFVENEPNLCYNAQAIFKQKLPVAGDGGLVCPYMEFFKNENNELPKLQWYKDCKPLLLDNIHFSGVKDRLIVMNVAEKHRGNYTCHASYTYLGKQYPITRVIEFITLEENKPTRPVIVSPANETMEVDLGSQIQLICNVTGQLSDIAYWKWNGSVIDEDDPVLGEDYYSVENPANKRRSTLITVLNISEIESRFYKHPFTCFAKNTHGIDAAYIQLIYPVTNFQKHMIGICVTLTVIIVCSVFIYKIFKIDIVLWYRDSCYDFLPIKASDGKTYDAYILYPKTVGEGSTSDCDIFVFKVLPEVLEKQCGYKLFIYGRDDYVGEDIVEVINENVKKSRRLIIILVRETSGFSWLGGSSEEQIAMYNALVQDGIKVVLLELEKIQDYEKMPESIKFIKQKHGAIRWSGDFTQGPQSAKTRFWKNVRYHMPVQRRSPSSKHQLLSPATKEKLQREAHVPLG

The Kd is the equilibrium constant for the complex coming apart. Consider “mature IL-1α mature (from UniProt P01583)”, for which the Kd in data set [1] was 4.5 nM.
With pro-IL-1α (from UniProt P01583), the Kd in data set [2] was 4 nM.
